Among the data in patent US20090170219, “Nucleic acid capable of binding to immunoglobulin G and use thereof” (published 2009) are binding result and Kd values, retold here.

One data set deals with IgG (rabbit, UniProt P01870 P01870:1-323). The data set can be described thus: SPR. The following applies: tags: Zymed Laboratories, chain copies: 2, label: 3' A16 tail for immobilisation. Here is the method:
(§1) Used for the measurements was BIAcore 2000 manufactured by BIAcore. Used as the sensor chip was the SA chip having streptavidin immobilized thereon. Bound thereto was about 1000 RU of 16-residue Poly dT having biotin bound to the 5′ end thereof. The RNA for use as the ligand had 16-residue Poly A added to the 3′ end thereof, and immobilized to the SA chip via a bond between dT and A. The amount immobilized was adjusted to about 1000 RU by injecting 60 μL at a concentration of 0.01 μg/μL. 70 μL of IgG-Fc for analyte (manufactured by Athens Research & Technology), adjusted to 0.6 μM, was injected. The running buffer used had the same components as those of the solution A used in SELEX.
(§2) Whether or not the prepared RNA aptamers also have binding affinity for subclasses of IgG other than human IgG1 or for IgG of animal species other than humans was determined using a surface plasmon resonance method. Measurements were performed in the same manner as Example 1 by immobilizing a nucleic acid having 16-residue Poly A added thereto via an A-pT bond, and injecting IgG thereto. Used as the RNA aptamers were the nucleic acids shown by SEQ ID NO:1 and 17. Used as the antibodies were human IgG1 (manufactured by Calbiochem), human IgG2 (manufactured by Calbiochem), human IgG3 (manufactured by Calbiochem), human IgG4 (manufactured by Calbiochem), mouse IgG1 (manufactured by Chemicon International), mouse IgG2a (manufactured by Chemicon International), mouse IgG2b (manufactured by Zymed Laboratories), mouse IgG3 (manufactured by Bethyl Laboratories), rat IgG1 (manufactured by R & D Systems), rat IgG2a. (manufactured by Zymed Laboratories), rat IgG2b. (manufactured by Zymed Laboratories), rat IgG2c (manufactured by UK-Serotec), rabbit IgG (manufactured by Zymed Laboratories), bovine IgG1 (manufactured by Bethyl Laboratories), bovine IgG2 (manufactured by Bethyl Laboratories), chicken IgG (manufactured by Rockland), dog IgG (manufactured by Rockland), cat IgG (manufactured by Bethyl Laboratories), guinea pig IgG (manufactured by Biogenesis), hamster IgG (manufactured by Rockland), and swine IgG (manufactured by Rockland).

The target in a further data set is IgG2b (mouse, UniProt P01867-2 P01867-2:98-335). The data set can be described thus: SPR. The following applies: tags: Zymed Laboratories, chain copies: 2, label: 3' A16 tail for immobilisation. Here is the method: as §1, §2
Sequence of IgG2b (P01867 other isoform, or with tags, fused parts or gaps): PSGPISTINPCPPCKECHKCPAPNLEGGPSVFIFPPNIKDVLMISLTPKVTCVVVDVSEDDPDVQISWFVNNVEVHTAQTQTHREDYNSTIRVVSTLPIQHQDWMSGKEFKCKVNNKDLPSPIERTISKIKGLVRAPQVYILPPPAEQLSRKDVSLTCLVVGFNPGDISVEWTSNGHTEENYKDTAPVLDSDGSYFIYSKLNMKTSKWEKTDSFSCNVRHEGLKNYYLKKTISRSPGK
Another data set has as its target IgG2a (mouse, UniProt P01863 P01863:98-330). The data set can be described thus: SPR. The following applies: tags: Chemicon International, chain copies: 2, label: 3' A16 tail for immobilisation. Here is the method: as §1, §2
For a further data set, the target named is IgG2c (rat, UniProt P20762 P20762:1-329). The data set can be described thus: SPR. The following applies: tags: UK-Serotec, chain copies: 2, label: 3' A16 tail for immobilisation. How it is done: as §1, §2
Sequence of IgG2c (P20762 whole entry, one chain of several): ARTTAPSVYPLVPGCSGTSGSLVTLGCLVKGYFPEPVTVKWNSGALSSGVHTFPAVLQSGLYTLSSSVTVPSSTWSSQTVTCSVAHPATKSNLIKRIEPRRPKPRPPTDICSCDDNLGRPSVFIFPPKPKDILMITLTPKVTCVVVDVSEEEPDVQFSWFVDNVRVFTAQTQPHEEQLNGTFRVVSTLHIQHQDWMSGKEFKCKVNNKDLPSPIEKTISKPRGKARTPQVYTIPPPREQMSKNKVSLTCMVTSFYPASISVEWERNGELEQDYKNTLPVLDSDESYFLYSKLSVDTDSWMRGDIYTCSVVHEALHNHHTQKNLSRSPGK
In a further data set the target is IgG2 (human, UniProt P01859-1 P01859-1:99-326). Briefly: SPR. The following applies: tags: Calbiochem, chain copies: 2, label: 3' A16 tail for immobilisation. How it is done: as §1, §2
Sequence of IgG2 (P01859 other isoform, or with tags, fused parts or gaps): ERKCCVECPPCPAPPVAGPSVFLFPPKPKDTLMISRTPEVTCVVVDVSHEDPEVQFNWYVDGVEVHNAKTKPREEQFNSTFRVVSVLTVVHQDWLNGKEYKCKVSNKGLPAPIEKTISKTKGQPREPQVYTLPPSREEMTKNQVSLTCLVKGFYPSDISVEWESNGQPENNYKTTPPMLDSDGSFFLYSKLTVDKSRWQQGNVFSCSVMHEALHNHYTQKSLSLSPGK
In a further data set the target is IgG3 (human, UniProt P01860-1 P01860-1:99-377). The data set can be described thus: SPR. The following applies: tags: Calbiochem, chain copies: 2, label: 3' A16 tail for immobilisation. Here is the method: as §1, §2
Sequence of IgG3 (P01860 other isoform, or with tags, fused parts or gaps): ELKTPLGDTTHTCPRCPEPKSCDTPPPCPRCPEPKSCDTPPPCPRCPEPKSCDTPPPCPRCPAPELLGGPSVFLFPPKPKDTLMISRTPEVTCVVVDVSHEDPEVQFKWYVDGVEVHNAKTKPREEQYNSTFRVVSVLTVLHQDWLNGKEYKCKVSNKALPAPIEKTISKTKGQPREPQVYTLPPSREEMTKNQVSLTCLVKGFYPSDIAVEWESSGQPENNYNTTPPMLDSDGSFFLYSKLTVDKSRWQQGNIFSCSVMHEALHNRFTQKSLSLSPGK
Another data set has as its target IgG4 (human, UniProt P01861-1 P01861-1:99-327). The data set can be described thus: SPR. The following applies: tags: Calbiochem, chain copies: 2, label: 3' A16 tail for immobilisation. How it is done: as §1, §2
Data set [1] concerns the target T1, IgG1 (human, UniProt P01857-1 P01857-1:1-330). Briefly: SPR; solution A; short aptamers fit bivalent 1:2 model better. The following applies: tags: Calbiochem; chain copies: 2; label: 3' A16 tail for immobilisation. On the technique in general: Surface plasmon resonance follows binding to a sensor surface in real time, without labels.
A further data set has as its target Protein A (UniProt P02976 P02976:37-485). Briefly: SPR; control; Protein A bound only when IgG1 was on the aptamer. The following applies: tags: MP Biomedicals; label: 3' A16 tail for immobilisation; GGUGCU bulge. How it is done: as §1
For data set [2], the target named is T1, IgG1. The data set can be described thus: SPR; solution A: 145 mM NaCl, 5.4 mM KCl, 1.8 mM CaCl2, 0.8 mM MgCl2, 20 mM Tris pH 7.6. The following applies: tags: Calbiochem; chain copies: 2; label: 3' A16 tail for immobilisation; GGUGCU bulge. Here is the method:
as §1
The dissociation constant was determined by immobilizing an RNA having 16-residue PolyA added to the 3′ end thereof onto a sensor chip via an A-dT bond, injecting different concentrations of IgG (0.6 μM to 0.05 μM), and performing surface plasmon resonance.

The target of data set [3] is T1, IgG1. Briefly: SPR; +++ in Table 4; binding not reduced in 500 mM NaCl, 2 mM MgCl2. The following applies: tags: Calbiochem; chain copies: 2.
Data set [4] has as its target T1, IgG1. The data set can be described thus: SPR; text says higher than SEQ 17, table shows equal. The following applies: tags: Calbiochem; chain copies: 2. Here is the method: as §1
The RNAs were prepared by chemical synthesis (manufactured by Gene Design). Their binding affinities were measured by a surface plasmon resonance method as in Example 1. Used as the IgG was human IgG1 (manufactured by Calbiochem).

T1 sequence (P01857 other isoform, or with tags, fused parts or gaps): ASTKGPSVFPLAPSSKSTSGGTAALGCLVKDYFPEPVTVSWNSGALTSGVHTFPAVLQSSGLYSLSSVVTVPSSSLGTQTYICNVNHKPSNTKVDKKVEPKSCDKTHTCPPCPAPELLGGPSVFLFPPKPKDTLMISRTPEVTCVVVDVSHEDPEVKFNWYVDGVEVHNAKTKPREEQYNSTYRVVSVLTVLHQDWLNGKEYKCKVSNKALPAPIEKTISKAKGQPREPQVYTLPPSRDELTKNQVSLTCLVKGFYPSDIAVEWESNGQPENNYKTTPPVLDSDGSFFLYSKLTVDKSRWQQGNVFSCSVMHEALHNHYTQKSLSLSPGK
Sequence of IgG (P01870 whole entry, one chain of several): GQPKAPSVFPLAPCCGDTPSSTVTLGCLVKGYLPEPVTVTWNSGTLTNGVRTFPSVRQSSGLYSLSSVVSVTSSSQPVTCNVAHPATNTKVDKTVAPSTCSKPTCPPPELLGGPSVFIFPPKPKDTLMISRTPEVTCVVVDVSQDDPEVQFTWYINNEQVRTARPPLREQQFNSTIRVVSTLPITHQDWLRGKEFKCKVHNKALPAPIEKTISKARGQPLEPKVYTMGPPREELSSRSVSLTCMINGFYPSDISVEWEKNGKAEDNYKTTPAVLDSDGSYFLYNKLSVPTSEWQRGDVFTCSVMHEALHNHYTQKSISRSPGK
Sequence of IgG2a (P01863 98-330, one chain of several): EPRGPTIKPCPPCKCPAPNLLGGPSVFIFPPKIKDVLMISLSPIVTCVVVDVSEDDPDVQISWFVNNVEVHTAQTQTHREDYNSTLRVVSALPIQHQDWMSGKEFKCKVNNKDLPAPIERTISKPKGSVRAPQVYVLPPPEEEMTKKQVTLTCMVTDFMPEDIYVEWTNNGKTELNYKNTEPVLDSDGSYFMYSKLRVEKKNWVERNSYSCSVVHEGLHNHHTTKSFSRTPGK
Sequence of IgG4 (P01861 other isoform, or with tags, fused parts or gaps): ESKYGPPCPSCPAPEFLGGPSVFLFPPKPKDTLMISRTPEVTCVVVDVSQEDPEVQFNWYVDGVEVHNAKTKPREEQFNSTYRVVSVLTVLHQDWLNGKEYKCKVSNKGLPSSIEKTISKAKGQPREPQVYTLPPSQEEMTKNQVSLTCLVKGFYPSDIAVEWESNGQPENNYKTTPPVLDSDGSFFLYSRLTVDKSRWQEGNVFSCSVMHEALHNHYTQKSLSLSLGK
Sequence of Protein A (P02976 37-485, one chain of several): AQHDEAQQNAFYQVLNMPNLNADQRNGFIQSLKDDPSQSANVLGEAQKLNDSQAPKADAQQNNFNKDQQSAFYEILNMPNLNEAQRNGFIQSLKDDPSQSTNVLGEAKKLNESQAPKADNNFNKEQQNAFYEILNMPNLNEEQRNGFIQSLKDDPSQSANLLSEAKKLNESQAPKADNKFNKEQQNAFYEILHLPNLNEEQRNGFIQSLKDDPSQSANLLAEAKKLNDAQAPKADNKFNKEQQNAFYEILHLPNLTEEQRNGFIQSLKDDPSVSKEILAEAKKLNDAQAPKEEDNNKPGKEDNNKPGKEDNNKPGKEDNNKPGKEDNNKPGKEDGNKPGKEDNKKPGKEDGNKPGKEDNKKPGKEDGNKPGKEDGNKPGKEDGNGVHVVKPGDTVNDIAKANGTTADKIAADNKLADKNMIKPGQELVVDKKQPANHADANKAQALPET

GGAGGUGCUCCGAAAGGAACUCC (ssRNA, 2'-F at all pyrimidines) [SEQ ID NO:17]: the binding result with IgG is “no binding”; with IgG2b, “no binding”; with IgG2a it was “no binding”; with IgG2c, “no binding”; with IgG2, “binds”; in the data set with IgG3, “binds”. The binding result with IgG4 is on record as “binds”. In addition, the Kd with IgG1 [1] was determined as 10 nM.

B1: SEQ ID NO:1 (ssRNA)
RNA: GGGACACAAUGGACGAGUUACAGGUGCUCCAUCAACAAAAUGUUACAUGGAACUGUAACGGCCGACAUGAGAG
modifications: 2'-F at all pyrimidines
In the case of B1, the binding result was “no binding” with IgG (GGUGCU bulge); “no binding” with IgG2b (GGUGCU bulge); “no binding” with IgG2a (GGUGCU bulge); “no binding” with IgG2c (GGUGCU bulge); “binds” with IgG2 (GGUGCU bulge); “binds” with IgG3 (GGUGCU bulge). The binding result is “binds” with IgG4 (GGUGCU bulge) and “no binding” with Protein A. In the data set with IgG1 [2], this molecule registered a Kd of 0.3 nM.

B2: SEQ ID NO:17-7 (23F23) (mixed)
RNA: GGAGGUGCUCCGAAAGGAACUCCAAAAAAAAAAAAAAAA
modifications: deoxy G1 G2 C8 C10 C11 G12-A15 A18 A19 C22 C23 and A16 tail; 2'-F U6 U9 C20 U21; rest 2'-OH
For B2, the binding result in the data set with IgG1 [3] was “binds”.

As to GGAGGUGCUCCGAAAGGAACUCCAAAAAAAAAAAAAAAA (mixed, as 17-7 with 2'-OMe G16) [SEQ ID NO:17-9 (23F32)], in the data set with IgG1 [4], the binding result is listed as “binds”.
